Measurements: publication doi:10.1101/2025.05.28.656676 (bioRxiv, 2025)

B1: MBP-tagged glucocorticoid receptor ligand-binding domain (MBP-GR LBD, F602S, 520-777) (domain or fragment, UniProt P04150 520-777, looked up)
chain: IVPATLPQLTPTLVSLLEVIEPEVLYAGYDSSVPDSTWRIMTTLNMLGGRQVIAAVKWAKAIPGFRNLHLDDQMTLLQYSWMSLMAFALGWRSYRQSSANLLCFAPDLIINEQRMTLPCMYDQCKHMLYVSSELHRLQVSYEEYLCMKTLLLLSSVPKDGLKSQELFDEIRMTYIKELGKAIVKREGNSSQNWQRFYQLTKLLDSMHEVVENLLNYCFQTFLDKTMSIEFPEMLAEIITNQIPKYSNGNIKKLLFHQK

Experiments:
[1] = target: T1, Hsp90a (wild-type Hsp90) (human, UniProt P07900 1-732); assay: SEC
[2] = target: D93N Hsp90 (human, UniProt P07900 1-732, D93N); assay: pull-down
[3] = target: Hop (human, UniProt P31948 1-543); assay: pull-down
[4] = target: B1; assay: SEC
[5] = target: T1, Hsp90a (wild-type Hsp90); assay: cryo-EM structure

| Binder | binding result [1] | binding result [2] | binding result [3] | binding result [4] | binding result [5] |
| --- | --- | --- | --- | --- | --- |
| B1 | binds | binds | binds |  |  |
| p23 (natural protein, human) MQPASAKWYDRRDYVFIEFCVEDSKDVNVNFEKSKLTFSCLGGSDNFKHLNEIDLFHCIDPNDSKHKRTDRSILCCLRKGESGQSWPRLTKERAKLNWLSVDFNNWKDWEDDSDEDMSNFDRFSEMMNNMGGDEDVDLPEVDGADDDSQDSDDEKMPDLE |  |  |  | binds | binds |
| MBP-tagged glucocorticoid receptor DNA binding domain, hinge and ligand binding domain (MBP-GR DBD-LBD, 418-777, F602S) (domain or fragment, UniProt P04150 418-777, looked up) PKLCLVCSDEASGCHYGVLTCGSCKVFFKRAVEGQHNYLCAGRNDCIIDKIRRKNCPACRYRKCLQAGMNLEARKTKKKIKGIQQATTGVSQETSENPGNKTIVPATLPQLTPTLVSLLEVIEPEVLYAGYDSSVPDSTWRIMTTLNMLGGRQVIAAVKWAKAIPGFRNLHLDDQMTLLQYSWMSLMAFALGWRSYRQSSANLLCFAPDLIINEQRMTLPCMYDQCKHMLYVSSELHRLQVSYEEYLCMKTLLLLSSVPKDGLKSQELFDEIRMTYIKELGKAIVKREGNSSQNWQRFYQLTKLLDSMHEVVENLLNYCFQTFLDKTMSIEFPEMLAEIITNQIPKYSNGNIKKLLFHQK |  |  |  |  | binds |
| CHIP E3 ubiquitin ligase (enzyme, human, UniProt Q9UNE7 1-303, looked up) MKGKEEKEGGARLGAGGGSPEKSPSAQELKEQGNRLFVGRKYPEAAACYGRAITRNPLVAVYYTNRALCYLKMQQHEQALADCRRALELDGQSVKAHFFLGQCQLEMESYDEAIANLQRAYSLAKEQRLNFGDDIPSALRIAKKKRWNSIEERRIHQESELHSYLSRLIAAERERELEECQRNHEGDEDDSHVRAQQACIEAKHDKYMADMDELFSQVDEKRKKRDIPDYLCGKISFELMREPCITPSGITYDRKDIEEHLQRVGHFDPVTRSPLTQEQLIPNLAMKEVIDAFISENGWVEDY |  |  |  |  | binds |
